The text below walks through data of US20250289904A1 (UMC UTRECHT HOLDING B V, published 2025).

Experiment [1] has as its target plasmin-cleaved von Willebrand factor (cVWF) (human) (UniProt P04275). Put plainly: capture ELISA, cVWF in buffer, detection with biotinylated VHH B9. (An ELISA detects its analyte on a solid surface through an enzyme-linked reagent.)
Experiment [2] shares this target. Put plainly: capture ELISA, cVWF spiked in citrated normal pooled plasma, detection with biotinylated VHH B9.
Experiment [3] shares this target. Put plainly: capture ELISA, VHH coated on plate, concentration series of VWF and cVWF in buffer, detection with biotinylated VHH B9; reference: intact VWF.
The target in experiment [4] is T1, intact von Willebrand factor (VWF) (human, UniProt P04275 764-2813).
T1 construct: also called uncleaved VWF; purified VWF
T1 sequence (P04275 764-2813 limits assumed): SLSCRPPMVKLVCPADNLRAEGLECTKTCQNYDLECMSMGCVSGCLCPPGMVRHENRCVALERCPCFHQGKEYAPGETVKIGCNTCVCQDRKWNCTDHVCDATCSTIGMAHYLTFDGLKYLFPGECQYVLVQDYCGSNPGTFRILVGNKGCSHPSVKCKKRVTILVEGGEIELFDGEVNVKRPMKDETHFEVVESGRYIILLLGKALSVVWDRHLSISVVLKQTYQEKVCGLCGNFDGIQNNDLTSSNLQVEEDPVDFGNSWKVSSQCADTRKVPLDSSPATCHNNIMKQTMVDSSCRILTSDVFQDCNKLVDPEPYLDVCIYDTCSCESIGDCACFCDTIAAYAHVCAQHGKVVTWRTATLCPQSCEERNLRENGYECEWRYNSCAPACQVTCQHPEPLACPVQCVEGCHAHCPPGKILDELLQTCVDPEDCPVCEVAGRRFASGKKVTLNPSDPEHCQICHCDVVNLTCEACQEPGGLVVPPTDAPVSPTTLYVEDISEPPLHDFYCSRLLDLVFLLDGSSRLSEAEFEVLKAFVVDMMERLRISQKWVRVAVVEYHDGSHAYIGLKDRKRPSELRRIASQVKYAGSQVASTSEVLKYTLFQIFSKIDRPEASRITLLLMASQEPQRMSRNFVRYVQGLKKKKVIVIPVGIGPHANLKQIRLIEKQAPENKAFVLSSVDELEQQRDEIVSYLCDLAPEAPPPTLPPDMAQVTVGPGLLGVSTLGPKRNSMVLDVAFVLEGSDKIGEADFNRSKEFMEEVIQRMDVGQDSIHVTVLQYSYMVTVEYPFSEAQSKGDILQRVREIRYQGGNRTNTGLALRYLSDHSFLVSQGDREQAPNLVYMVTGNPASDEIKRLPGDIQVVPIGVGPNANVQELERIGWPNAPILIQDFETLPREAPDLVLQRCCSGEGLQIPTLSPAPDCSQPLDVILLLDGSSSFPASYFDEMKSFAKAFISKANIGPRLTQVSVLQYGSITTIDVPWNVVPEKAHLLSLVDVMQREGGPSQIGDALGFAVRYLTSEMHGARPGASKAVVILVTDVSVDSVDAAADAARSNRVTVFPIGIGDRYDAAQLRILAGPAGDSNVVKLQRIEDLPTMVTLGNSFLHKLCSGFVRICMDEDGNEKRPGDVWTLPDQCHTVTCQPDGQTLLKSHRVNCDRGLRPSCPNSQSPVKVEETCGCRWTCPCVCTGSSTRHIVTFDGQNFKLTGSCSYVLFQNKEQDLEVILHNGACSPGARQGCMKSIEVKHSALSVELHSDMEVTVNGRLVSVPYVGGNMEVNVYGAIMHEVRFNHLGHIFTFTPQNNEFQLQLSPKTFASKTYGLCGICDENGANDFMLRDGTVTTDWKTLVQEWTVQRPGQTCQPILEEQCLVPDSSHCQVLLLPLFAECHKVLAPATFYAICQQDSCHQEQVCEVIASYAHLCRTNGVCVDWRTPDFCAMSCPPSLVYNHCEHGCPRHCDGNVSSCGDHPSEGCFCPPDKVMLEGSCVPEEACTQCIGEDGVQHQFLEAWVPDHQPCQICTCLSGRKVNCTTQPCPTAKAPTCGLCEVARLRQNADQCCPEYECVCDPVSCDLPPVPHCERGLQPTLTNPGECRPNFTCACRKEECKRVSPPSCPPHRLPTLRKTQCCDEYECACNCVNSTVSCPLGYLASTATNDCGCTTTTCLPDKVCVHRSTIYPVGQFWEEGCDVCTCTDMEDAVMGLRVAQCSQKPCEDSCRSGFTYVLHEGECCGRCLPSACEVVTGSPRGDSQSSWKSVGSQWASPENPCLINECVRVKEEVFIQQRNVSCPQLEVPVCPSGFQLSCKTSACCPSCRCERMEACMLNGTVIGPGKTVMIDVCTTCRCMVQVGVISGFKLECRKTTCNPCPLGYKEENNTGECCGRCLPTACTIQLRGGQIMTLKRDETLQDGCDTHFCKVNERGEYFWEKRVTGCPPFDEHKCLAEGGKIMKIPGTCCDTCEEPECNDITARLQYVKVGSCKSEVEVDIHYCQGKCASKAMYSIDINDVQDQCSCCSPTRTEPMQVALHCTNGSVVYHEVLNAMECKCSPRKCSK
Put plainly: capture ELISA, VHH coated on plate, concentration series of VWF in buffer, detection with biotinylated VHH B9 and streptavidin-poly HRP.

B1: cVWF capture VHH #2 (G5) (VHH, not shown: small tags and cut ends)
VHH: EVQLVESGGGLVQAGGSLRLSCAVSGRTVSNSMAWFRQAPEKEREFVAAISWNSGRTDYADSVKGRFTISRDNAKNTVDLQMNSLKAEDTAVYYCAVHRVRIEPKEYLYWGQGTQVTVSS
B1: the sensitivity of the cVWF ELISA in experiment [1] and in experiment [2] was 4 ng/mL in each case.

B2: cVWF capture VHH #1 (F5) (VHH, not shown: small tags and cut ends)
VHH: EVQLVESGGGLVQAGGSLRLSCAASGQTDSTYTGGWFRQAPGKEREFVATFSWNSGRTHFADSVKGRFTISRDNAKSTVFLQMNSLKPEDTAVYYCAAHRTSLTDYSFRYWGQGTHVTVSS
With B2, the sensitivity of the cVWF ELISA in experiment [1] and in experiment [2] was 8 ng/mL throughout. The same molecule yielded a fold discrimination between VWF and cVWF in experiment [3] of 144 fold.

B3: negative control VHH-R2 (VHH)
VHH: QVQLQESGGGLVQAGGSLRLSCAASGRATSGHGHYGMGWFRQVPGKEREFVAAIRWSGKETWYKDSVKGRFTISRDNAKTTVYLQMNSLKPEDTAVYYCAARPVRVDDISLPVGFDYWGQGTQVTVSS
notes: Production and tags of this control are not described
Consider B3, for which the binding result in experiment [4] was “no binding”.
